Measurements as given in US8778635B2, “Thermostable proteins and methods making and using thereof” (Becton, Dickinson and Company, priority 2006, dated 2014).

What was measured:
[1] = Circular dichroism melting temperature (Tm), CD signal at 222 nm versus temperature; assay type: physicochemical
Method: Circular Dichroism (CD) spectra were preformed on a JASCO J-810. Samples of purified fluorophore-labeled proteins were exhaustively dialyzed into phosphate buffered saline (PBS) (comprised of 137 mM NaCl, 10 mM phosphate and 2.7 mM KCl, pH 7.4). The loss of secondary structure of 3M-GGBP and W183C-GGBP was observed by recording the CD signal at 222 nm as a function of temperature. During the experiment, the temperature of the sample changed at a rate of ˜1° C./min between 20 and 80° C. The apparent melting temperature at the midpoint of the transition (Tm) was obtained by fitting the experimental data points (CD signal versus temperature) with a sigmoidal function.

[2] = Fluorescence assay of glucose binding (glucose titration, Kd and fluorescence response)
Method: Dye-protein fluorophore (N,N′-dimethyl-N-(iodoacetyl)-N′-(7-nitrobenz-2-oxa-1,3-diazol-4-yl)ethylenediamine designated IANBD) or acrylodan coupling was performed as described by the manufacturer (Molecular Probes).
Briefly, 0.5 ml of 3M-GGBP (1-2 mg/ml) was treated with 2.5 molar excess of dithiothreitol for 30 min. A10-fold molar excess solution of IANBD in DMSO (0.5 mg/100 uL) was then added. While protected from light, the protein and dye were gently mixed for 4 h at 25° C. before the unreacted dye was removed by Nap-5 column chromatography (Amersham Biosciences).
Binding constants were determined by titration of increasing concentrations of glucose into a 0.1 μM protein in PBS and monitoring the change in fluorescence. The Kd was determined from the following relationships as adapted from Pisarchick and Thompson (Pisarchick, M. L. and Thompson, N. L. Biophys. J. (1990), 58, 1235-1249):
[formula] where F is fluorescence intensity, Finf is fluorescence at infinity, F0 is fluorescence at zero
[formula] where [Glc]free is the concentration of free glucose and [Glc]tot and [Prot]tot are the total concentrations of glucose and protein, respectively. For the SM4, the ratio of the area under the fluorescence curve from 514-540 nm to the area under the curve at 450-470 nm was used in place of fluorescence intensity in the equations above. […]

[3] = Storage stability of purified / labeled protein; assay type: physicochemical; conditions: acrylodan-labeled
Method: The modified GGBP were expressed from E. coli strain Sg13009 following standard protocols (Qiagen). After induction, bacteria were lysed using Bugbuster protein extraction reagent (Novagen) and purified by IMAC using Talon cobalt^2+ resin (Clontech). The purified protein in solution was filtered through 100 kDa cutoff filter and then concentrated using a 10 kDa cutoff filter (Millipore). The protein (1-2 mg/ml) was dialyzed at 4° C. into a solution containing 1M NaCl, 10 mM Tris-HCl, and 50 mM NaPO4 (pH 8) and stored at 4° C. Under these conditions the protein was active for at least six months. The yield from the purification was approximately 10 mg/l.
After labeling with acrylodan the SM4 was transferred to a buffer for frozen storage. The protein was dialyzed against a solution of 0.01M MES, 30 mM glucose (pH 5.5-5.7) for 24 h with three changes of buffer. After dialysis the protein was quantified and diluted to a 100 μM solution using the same buffer. The vials were then placed directly into a −70° C. freezer for storage. The protein is stable for at least 3 months under these conditions.
To lyophilize the SM4 protein, the protein solution was dialyzed against ammonium bicarbonate (50 mM, pH 7) for 24 h with three changes of buffer. The protein was passed through a 0.2 um Supor filter (Pall) and was aliquoted into amber vials (2 mg/vial). […]

Q: Which “Tm*” value ([1]; Tm determined in PBS, fluorophore-labeled protein) does the source give for “W183C-acrylodan: reference W183C-GGBP labeled with acrylodan” here?
A: 39.8 ± 2%

Q: What about the Kd ([2]; glucose titrated into 0.1 μM protein in PBS) of the same molecule?
A: 19.6 ± 10%

Q: What about the “Fluorescent Response” value ([2]; glucose, labeled protein) of the same molecule?
A: 3.4 ± 8%

B1: W183C(1, 3, 5, 10): W183C (SEQ ID NO:4) with N39I, G82E, Q83K, N84D, Q175E, Q177H, L178M, N259E and N260S (protein)
chain: ADTRIGVTIYKYDDNFMSVVRKAIEQDAKAAPDVQLLMIDSQNDQSKQNDQIDVLLAKGVKALAINLVDPAAAGTVIEKAREKDVPVVFFNKEPSRKALDSYDKAYYVGTDSKESGIIQGDLIAKHWAANQGWDLNKDGQIQFVLLKGEPGHPDAEARTTYVIKELNDKGIKTEELHMDTAMCDTAQAKDKMDAWLSGPNANKIEVVIANNDAMAMGAVEALKAHNKSSIPVFGVDALPEALALVKSGALAGTVLNDAESQAKATFDLAKNLADGKGAADGTNWKIDNKVVRVPYVGVDKDNLAEFSKK
Q: Which “Tm greater than that of the reference protein (W183C)” value ([1]; FIG. 1, protocol of Example 2) does the source give for B1 here?
A: about 9.4 °C

Q: And the melting temperature ([1]; without the termini additions present, in PBS)?
A: about 55.4 °C

Q: What about the “time the protein is stable, frozen storage” value ([3]; 100 μM in 0.01M MES, 30 mM glucose (pH 5.5-5.7), −70° C.) of the same molecule?
A: at least 3 months

Q: And the “time the protein is stable, lyophilized” value ([3]; lyophilized from ammonium bicarbonate (50 mM, pH 7))?
A: at least 6 months
